From PMC4760375, “A dual phosphorylation switch controls 14-3-3-dependent cell surface expression of TASK-1” (Journal of Cell Science, 2016) come the findings set out here.

Non-standard residues stand in square brackets, D forms with d. No end group written: not given here. pS = N[C@@H](COP(=O)(O)O)C(=O)O

In test [1] the target is 14-3-3γ (UniProt P61981). Put plainly: fluorescence polarization titration. Particulars: reference: unphosphorylated peptide.
Test [2] deals with T1, 14-3-3σ (human, UniProt P31947 1-248).
T1 chain: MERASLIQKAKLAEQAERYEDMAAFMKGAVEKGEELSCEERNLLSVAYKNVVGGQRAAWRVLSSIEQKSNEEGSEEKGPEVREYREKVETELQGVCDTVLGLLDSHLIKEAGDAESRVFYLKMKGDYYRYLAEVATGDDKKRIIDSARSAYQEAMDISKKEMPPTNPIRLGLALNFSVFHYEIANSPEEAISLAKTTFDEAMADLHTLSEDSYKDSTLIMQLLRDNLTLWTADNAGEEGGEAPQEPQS
Description: fluorescence polarization titration. The conditions noted are these: reference: unphosphorylated peptide; sites S393.

Test [3] has as its target 14-3-3ζ (UniProt P63104). Put plainly: fluorescence polarization titration. The conditions noted are these: reference: unphosphorylated peptide. In general terms: In fluorescence polarisation assays a small probe gives low polarisation when free and higher when bound to something large.
Test [4] has as its target T2, 14-3-3ε (human, UniProt P62258 1-255).
T2 chain: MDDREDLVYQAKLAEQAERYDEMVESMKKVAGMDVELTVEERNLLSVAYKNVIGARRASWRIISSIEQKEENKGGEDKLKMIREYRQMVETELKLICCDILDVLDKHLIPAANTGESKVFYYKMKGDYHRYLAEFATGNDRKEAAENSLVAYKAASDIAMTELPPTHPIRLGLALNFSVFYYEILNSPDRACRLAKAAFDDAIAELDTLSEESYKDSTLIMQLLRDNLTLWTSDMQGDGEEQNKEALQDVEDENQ
Put plainly: fluorescence polarization titration. The conditions noted are these: reference: unphosphorylated peptide.

Test [5] has as its target 14-3-3η (UniProt Q04917). Put plainly: fluorescence polarization titration. The conditions noted are these: reference: unphosphorylated peptide; sites S393.
Test [6] concerns the target T3, 14-3-3β (human, UniProt P31946 1-246).
T3 chain: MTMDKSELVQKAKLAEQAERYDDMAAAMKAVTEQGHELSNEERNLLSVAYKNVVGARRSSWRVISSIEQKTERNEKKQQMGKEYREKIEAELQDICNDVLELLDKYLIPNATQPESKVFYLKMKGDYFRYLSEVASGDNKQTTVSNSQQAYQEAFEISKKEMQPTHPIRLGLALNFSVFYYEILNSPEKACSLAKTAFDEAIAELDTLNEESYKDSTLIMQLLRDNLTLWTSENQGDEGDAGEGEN
Put plainly: fluorescence polarization titration. Particulars: reference: unphosphorylated peptide; sites S373.

Test [7] has as its target 14-3-3τ (UniProt P27348). Put plainly: fluorescence polarization titration. Particulars: reference: unphosphorylated peptide; sites S373.
Test [8] deals with GST-tagged TASK-3 C-terminal 15 residues fusion protein, phosphorylated with PKA catalytic subunit (human) (UniProt Q9NPC2). Description: SPR; GST fusion protein captured by an anti-GST antibody on an HC1000m chip, phosphorylated on the chip with PKA catalytic subunit; 14-3-3 proteins as analyte; 20°C; 150 mM NaCl, 20 mM HEPES, 0.005% (v/v) Tween 20, pH 7.5; equilibrium binding isotherms.

Test [9] addresses doubly phosphorylated TASK-1 C-terminal fluorescent peptide (pS392 and pS393) (human) (UniProt O14649). Put plainly: fluorescence polarisation; 10 nM fluorescein-labelled peptide titrated with 14-3-3 protein (1 nM to 120 µM in the results, 100 µM to 1 nM in the methods); 20 mM MOPS, 150 mM NaCl, 0.005% (v/v) CHAPS pH 7.0; room temperature; monophasic fit.
The target of test [10] is TASK-1 pS392 C-terminal fluorescent peptide (human) (UniProt O14649). The description is as above.
Test [11] deals with T4, GST-tagged TASK-3 C-terminal 15 residues fusion protein, phosphorylated with PKA catalytic subunit (human, UniProt Q9NPC2 360-374).
T4 chain: {GST}-SFTDHQRLMKRRK[pS]V
Put plainly: SPR. (Surface plasmon resonance follows binding to a sensor surface in real time, without labels.)

Test [12] addresses T5, TASK-3 pS373 ΔV374 C-terminal fluorescent peptide (human, UniProt Q9NPC2 360-374, ΔV374, also: fluorescein label, position not given here).
T5 construct: TASK-3 (KCNK9), human, C-terminal peptide with phosphorylated S373 but lacking the C-terminal valine V374; ends at pS373; source: synthetic peptide, bought: Peps4Life Sciences
T5 peptide (looked up): SFTDHQRLMKRRK[pS]
Description: fluorescence polarisation; 10 nM fluorescein-labelled peptide titrated with 14-3-3 protein (1 nM to 120 µM in the results, 100 µM to 1 nM in the methods); 20 mM MOPS, 150 mM NaCl, 0.005% (v/v) CHAPS pH 7.0; room temperature; monophasic fit. The conditions noted are these: both partners purified.

The target in test [13] is T6, 14-3-3γ (human, UniProt P61981 1-247).
T6 chain: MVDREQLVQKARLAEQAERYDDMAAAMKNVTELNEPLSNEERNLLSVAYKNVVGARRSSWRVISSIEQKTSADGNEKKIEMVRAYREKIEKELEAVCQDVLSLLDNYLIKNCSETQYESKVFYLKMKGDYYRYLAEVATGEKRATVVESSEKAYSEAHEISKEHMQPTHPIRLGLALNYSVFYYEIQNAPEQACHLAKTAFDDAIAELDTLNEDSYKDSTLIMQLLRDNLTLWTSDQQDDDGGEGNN
Description: FP.

The target in test [14] is T3, 14-3-3β. Description: FP.
Test [15] concerns the target T7, 14-3-3ζ (human, UniProt P63104 1-245).
T7 chain: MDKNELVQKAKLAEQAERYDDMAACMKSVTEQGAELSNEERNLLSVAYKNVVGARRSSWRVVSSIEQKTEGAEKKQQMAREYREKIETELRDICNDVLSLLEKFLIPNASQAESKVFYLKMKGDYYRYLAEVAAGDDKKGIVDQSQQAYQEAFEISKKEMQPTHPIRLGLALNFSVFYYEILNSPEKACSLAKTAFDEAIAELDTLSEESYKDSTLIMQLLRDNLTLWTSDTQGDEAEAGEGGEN
Put plainly: FP.

Test [16] has as its target T2, 14-3-3ε. Description: FP.
Test [17] has as its target T8, 14-3-3τ (human, UniProt P27348 1-245).
T8 chain: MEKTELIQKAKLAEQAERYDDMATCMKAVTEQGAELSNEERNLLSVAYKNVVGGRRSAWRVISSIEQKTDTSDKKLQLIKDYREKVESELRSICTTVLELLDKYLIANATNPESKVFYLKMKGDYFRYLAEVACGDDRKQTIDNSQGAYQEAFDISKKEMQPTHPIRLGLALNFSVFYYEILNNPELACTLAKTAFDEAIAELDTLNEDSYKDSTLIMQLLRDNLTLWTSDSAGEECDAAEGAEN
Put plainly: FP.

Test [18] deals with TASK-1 pS393 C-terminal fluorescent peptide (last 15 amino acids) (human) (UniProt O14649). Description: fluorescence polarisation; 10 nM fluorescein-labelled peptide titrated with 14-3-3 protein (1 nM to 120 µM in the results, 100 µM to 1 nM in the methods); 20 mM MOPS, 150 mM NaCl, 0.005% (v/v) CHAPS pH 7.0; room temperature; monophasic fit.
Test [19] deals with T1, 14-3-3σ. Put plainly: FP.
The target of test [20] is T9, 14-3-3η (human, UniProt Q04917 1-246).
T9 chain: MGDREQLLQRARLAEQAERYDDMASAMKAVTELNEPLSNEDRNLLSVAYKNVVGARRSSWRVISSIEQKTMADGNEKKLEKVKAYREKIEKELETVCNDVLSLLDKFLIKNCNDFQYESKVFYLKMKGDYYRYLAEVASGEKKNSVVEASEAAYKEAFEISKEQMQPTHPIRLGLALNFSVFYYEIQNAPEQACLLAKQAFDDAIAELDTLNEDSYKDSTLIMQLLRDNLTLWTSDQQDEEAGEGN
Put plainly: FP.

Take “TASK-1 last 15 amino acids of the C-terminus (from UniProt O14649) pS393 peptide”: the “binding against the reference” value in [1] (sites S393), in test [2], in [3] (sites S393), in test [4] (sites S393) and in [5] was “gained” in each case.

In the case of “TASK-3 last 15 amino acids of the C-terminus (from UniProt Q9NPC2) pS373 peptide”, the “binding against the reference” value in [1] (sites S373), in test [6], in [3] (sites S373), in [4] (sites S373) and in test [7] was “gained” in each case.

Regarding “14-3-3γ (from UniProt P61981 1-247) (natural protein)”, the equilibrium dissociation constant (Kd) in test [8] amounted to 0.045 µM; in [9], 200 µM; in test [10], 100 µM.

B1: 14-3-3ε (natural protein, human, UniProt P62258 1-255, looked up)
chain: T2 chain
notes: 14-3-3 protein epsilon, human; open reading frame inserted into pMAL2Cx; also called 14-3-3 epsilon
Take B1: the Kd stood at 0.15 µM in test [11] and 100 µM in [10]. For the same molecule, the “fold reduction of affinity against the TASK-3 pS373 peptide with V374” value in test [12] was found to be 23 fold.

As for SFTDHQRLMKRRK[pS]V (also: fluorescein label, position not given here) [TASK-3 pS373 C-terminal fluorescent peptide (last 15 amino acids)], the Kd in [13] came out at 0.15 µM; in [14], 0.37 µM; in [15], 1 µM; in test [16], 0.8 µM; in test [17], 0.22 µM.

B2: 14-3-3β (natural protein, human, UniProt P31946 1-246, looked up)
chain: T3 chain
notes: 14-3-3 protein beta, human; open reading frame inserted into pMAL2Cx; also called 14-3-3 beta
Take B2: the dissociation constant (Kd) in test [11] turned out to be 0.181 µM; in test [18], 7.5 µM; in test [10], 100 µM. For the same molecule, the “fold reduction of affinity against the TASK-3 pS373 peptide with V374” value in test [12] worked out at 3 fold.

As for SLSTFRGLMKRRS[pS]V (also: fluorescein label, position not given here) [TASK-1 pS393 C-terminal fluorescent peptide (last 15 amino acids)], the Kd turned out to be 9.8 µM in test [13]; 36 µM in [19]; 23 µM in test [15]; 9.2 µM in test [20]; 29 µM in test [16].

By Kd is commonly meant the free concentration of one partner at which half of the binding sites on the other are occupied at equilibrium, for simple one-to-one binding.
